According to US20260028387A1 (published 2026):

B1: PAVLQSSGLYSL (SEQ ID NO: 68) (peptide)
peptide: PAVLQSSGLYSL
notes: synthetic peptide; source genes IGHV4-31, IGHG1, IGHG2, IGHG3, IGHG4, IGHM
B2: HLIAEIHTA (SEQ ID NO: 9) (peptide)
peptide: HLIAEIHTA
notes: synthetic peptide; source gene PTHLH; also called PTHL-001
B3: GLLVGSEKVTM (SEQ ID NO: 69) (peptide)
peptide: GLLVGSEKVTM
notes: synthetic peptide; source genes KRT14, KRT16, KRT16P3
B4: FVLDTSESV (SEQ ID NO: 70) (peptide)
peptide: FVLDTSESV
notes: synthetic peptide; source genes COL6A1, COL6A2
B5: LAYTLGVKQL (SEQ ID NO: 63) (peptide)
peptide: LAYTLGVKQL
notes: synthetic peptide; source genes EEF1A1P5, EEF1A1, EEF1A2

What follows are binders tested against T1, HLA-A*02:01 (peptide-receptive MHC class I molecule of the UV-ligand exchange assay) (human) (assay: UV-ligand exchange, anti-b2m ELISA; peptide exchange yield grade (>=10% = +; >=20% = ++; >=50 = +++; >=75% = ++++)).
T1 construct: MHC monomer first loaded with a UV-sensitive peptide (not identified) that is cleaved by UV light and exchanged for the test peptide; captured on streptavidin plates
Text: Candidate peptides for T cell based therapies according to the present invention were further tested for their MHC binding capacity (affinity). The individual peptide-MHC complexes were produced by UV-ligand exchange, where a UV-sensitive peptide is cleaved upon UV-irradiation, and exchanged with the peptide of interest as analyzed. Only peptide candidates that can effectively bind and stabilize the peptide-receptive MHC molecules prevent dissociation of the MHC complexes. To determine the yield of the exchange reaction, an ELISA was performed based on the detection of the light chain (β2m) of stabilized MHC complexes. The assay was performed as generally described in Rodenko et al. (Rodenko et al., 2006).
96 well MAXISorp plates (NUNC) were coated aver night with 2 ug/ml streptavidin in PBS at room temperature, washed 4× and blocked for 1 h at 37° C. in 2% BSA containing blocking buffer. Refolded HLA-A*02:01/MLA-001 monomers served as standards, covering the range of 15-500 ng/ml. Peptide-MHC monomers of the UV-exchange reaction were diluted 100 fold in blocking buffer. Samples were incubated for 1 h at 37° C., washed four times, incubated with 2 ug/ml HRP conjugated anti-02m for 1 h at 37° C., washed again and detected with TMB solution that is stopped with […]. Absorption was measured at 450 nm. Candidate peptides that show a high exchange yield (preferably higher than 50%, most preferred higher than 75%) are generally preferred for a generation and production of antibodies or fragments thereof, and/or T cell receptors or fragments thereof, as they show sufficient avidity to the MHC molecules and prevent dissociation of the MHC complexes.

| Binder | peptide exchange yield [%] |
| --- | --- |
| ALADGVVSQA (synthetic peptide; source gene GPKOW) [ALADGVVSQA (SEQ ID NO: 83)] | 50 to 75 |
| LLDEKVQSV (synthetic peptide; source gene TSHZ3) [LLDEKVQSV (SEQ ID NO: 66)] | 50 to 75 |
| SILRHVAEV (synthetic peptide; source gene EIF2S1) [SILRHVAEV (SEQ ID NO: 92)] | 20 to 50 |
| GLTDVIRDV (synthetic peptide; source gene FBXL18) [GLTDVIRDV (SEQ ID NO: 64)] | ≥ 75 |
| VLINTSVTL (synthetic peptide; source gene ZNF292) [VLINTSVTL (SEQ ID NO: 93)] | 50 to 75 |
| B1 | 20 to 50 |
| FLDNGPKTI (synthetic peptide; source gene EIF4G2) [FLDNGPKTI (SEQ ID NO: 87)] | 50 to 75 |
| SIFEGLLSGV (synthetic peptide; source gene GJB5) [SIFEGLLSGV (SEQ ID NO: 7)] | 20 to 50 |
| ILASLATSV (synthetic peptide; source gene TUBGCP2) [ILASLATSV (SEQ ID NO: 74)] | 50 to 75 |
| HLLGHLEQA (synthetic peptide; source gene PRDM15) [HLLGHLEQA (SEQ ID NO: 82)] | 50 to 75 |
| FLPPAQVTV (synthetic peptide; source gene NOL6) [FLPPAQVTV (SEQ ID NO: 72)] | 20 to 50 |
| KVANIIAEV (synthetic peptide; source gene RAP1GDS1) [KVANIIAEV (SEQ ID NO: 78)] | 20 to 50 |
| KITEAIQYV (synthetic peptide; source gene RORA) [KITEAIQYV (SEQ ID NO: 73)] | 50 to 75 |
| GQDVGRYQV (synthetic peptide; source gene SSR4) [GQDVGRYQV (SEQ ID NO: 79)] | 20 to 50 |
| KLIDDVHRL (synthetic peptide; source gene SRPR) [KLIDDVHRL (SEQ ID NO: 91)] | ≥ 75 |
| SMNGGVFAV (synthetic peptide; source gene SLC7A11) [SMNGGVFAV (SEQ ID NO: 67)] | 20 to 50 |
| AVLPHVDQV (synthetic peptide; source gene KIAA0947) [AVLPHVDQV (SEQ ID NO: 81)] | 50 to 75 |

| Binder | peptide exchange yield [%] |
| --- | --- |
| B2 | 50 to 75 |
| ASDPILYRPVAV (synthetic peptide; source gene PKM) [ASDPILYRPVAV (SEQ ID NO: 71)] | 50 to 75 |
| ALQEALENA (synthetic peptide; source gene NUP155) [ALQEALENA (SEQ ID NO: 80)] | 20 to 50 |
| B3 | 50 to 75 |
| SIYEYYHAL (synthetic peptide; source gene HIF1A) [SIYEYYHAL (SEQ ID NO: 90)] | 50 to 75 |
| B4 | 50 to 75 |
| ALYEYQPLQI (synthetic peptide; source gene MNAT1) [ALYEYQPLQI (SEQ ID NO: 62)] | 20 to 50 |
| VLVPYEPPQV (synthetic peptide; source gene TP63) [VLVPYEPPQV (SEQ ID NO: 77)] | 20 to 50 |
| SLADSLYNL (synthetic peptide; source gene CAMSAP2) [SLADSLYNL (SEQ ID NO: 89)] | 20 to 50 |
| NIIELVHQV (synthetic peptide; source gene SYK) [NIIELVHQV (SEQ ID NO: 85)] | ≥ 75 |
| SLAESLDQA (synthetic peptide; source gene DIS3) [SLAESLDQA (SEQ ID NO: 84)] | 50 to 75 |
| SLDENSDQQV (synthetic peptide; source gene S100A2) [SLDENSDQQV (SEQ ID NO: 10)] | 50 to 75 |
| KVADYIPQL (synthetic peptide; source gene GLS) [KVADYIPQL (SEQ ID NO: 76)] | 50 to 75 |
| ALLDGGSEAYWRV (synthetic peptide; source gene FAM83A) [ALLDGGSEAYWRV (SEQ ID NO: 8)] | 50 to 75 |
| YVVGGFLYQRL (synthetic peptide; source gene M6PR) [YVVGGFLYQRL (SEQ ID NO: 65)] | 50 to 75 |
| B5 | 50 to 75 |
